Publication PMC4695161, “Multifaceted interactions and regulation between antizyme and its interacting proteins cyclin D1, ornithine decarboxylase and antizyme inhibitor” (Oncotarget, 2015)

B1: N-terminal CCND1 peptide CCND1(21-154) (domain or fragment, human, UniProt P24385 21-154, looked up)
chain: NLLNDRVLRAMLKAEETCAPSVSYFKCVQKEVLPSMRKIVATWMLEVCEEQKCEEEVFPLAMNYLDRFLSLEPVKKSRLQLLGATCMFVASKMKETIPLTAEKLCIYTDNSIRPEELLQMELLLVNKLKWNLAA
notes: source: truncated by deletion mutagenesis of the human CCND1 plasmid
B2: N-terminal AZ peptide AZ(34-124) (domain or fragment)
chain: not shown
notes: also called AZ N-terminal peptide; source: truncated by deletion mutagenesis of the human AZ plasmid
B3: human ornithine decarboxylase (ODC) (enzyme, UniProt P11926 1-461, looked up)
chain: MNNFGNEEFDCHFLDEGFTAKDILDQKINEVSSSDDKDAFYVADLGDILKKHLRWLKALPRVTPFYAVKCNDSKAIVKTLAATGTGFDCASKTEIQLVQSLGVPPERIIYANPCKQVSQIKYAANNGVQMMTFDSEVELMKVARAHPKAKLVLRIATDDSKAVCRLSVKFGATLRTSRLLLERAKELNIDVVGVSFHVGSGCTDPETFVQAISDARCVFDMGAEVGFSMYLLDIGGGFPGSEDVKLKFEEITGVINPALDKYFPSDSGVRIIAEPGRYYVASAFTLAVNIIAKKIVLKEQTGSDDEDESSEQTFMYYVNDGVYGSFNCILYDHAHVKPLLQKRPKPDEKYYSSSIWGPTCDGLDRIVERCDLPEMHVGDWMLFENMGAYTVAAASTFNGFQRPTIYYVMSGPAWQLMQQFQNPDFPPEVEEQDASTLPVSCAWESGMKRHRAACASASINV
notes: ornithine decarboxylase (ODC), human; source: purified recombinant; expression not described
B4: human antizyme (AZ), wild type (natural protein)
chain: not shown
notes: antizyme (AZ), human; Natural AZ needs a +1 frameshift for translation; also called AZWT; full-length AZ; source: E. coli JM109 (pQE30), purified (Ni-NTA)

Assays:
Settings in all cases: both partners purified
[1] = molecular target: B4; experiment: AUC; sedimentation velocity, size distribution of mixtures at molar ratio AZ/CCND1 of 1; 30 mM Tris-HCl pH 7.4, 50 mM NaCl, 20°C; no constant fitted
[2] = molecular target: T1, human cyclin D1 (CCND1) (human, UniProt P24385 1-295); experiment: AUC; sedimentation velocity; AZ or AZ peptide at a fixed concentration, three concentrations of CCND1; 30 mM Tris-HCl pH 7.4, 50 mM NaCl; global fit (SEDPHAT) to A+B↔AB hetero-association
T1 construct: cyclin D1 (CCND1), human; source: E. coli JM109 (pQE30), purified (Ni-NTA)

[3] = molecular target: T2, pre-formed AZ-CCND1 complex (human, UniProt P54368 1-228; P24385 1-295); experiment: AUC; sedimentation velocity; AZ pre-incubated 1 hour with ODC (or CCND1) at molar ratio 1, then the third protein (CCND1 or ODC) at varied concentration; 30 mM Tris-HCl pH 7.4, 50 mM NaCl, 20°C
T2 construct: antizyme (AZ), human, as m1; cyclin D1 (CCND1), human, as m2; Molar ratio AZ/CCND1 fixed at 1; also called CCND1-AZ complex; source: AZ pre-incubated with CCND1 for 1 hour (purified recombinant proteins)
T2 sequence (P54368 whole entry, chain 1 of 2): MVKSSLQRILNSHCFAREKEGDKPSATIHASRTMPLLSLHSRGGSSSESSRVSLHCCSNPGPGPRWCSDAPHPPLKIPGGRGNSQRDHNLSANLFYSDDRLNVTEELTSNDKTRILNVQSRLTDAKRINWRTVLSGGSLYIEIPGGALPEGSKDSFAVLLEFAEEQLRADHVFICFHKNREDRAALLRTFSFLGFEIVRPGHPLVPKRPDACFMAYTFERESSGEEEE
T2 sequence (P24385 whole entry, chain 2 of 2): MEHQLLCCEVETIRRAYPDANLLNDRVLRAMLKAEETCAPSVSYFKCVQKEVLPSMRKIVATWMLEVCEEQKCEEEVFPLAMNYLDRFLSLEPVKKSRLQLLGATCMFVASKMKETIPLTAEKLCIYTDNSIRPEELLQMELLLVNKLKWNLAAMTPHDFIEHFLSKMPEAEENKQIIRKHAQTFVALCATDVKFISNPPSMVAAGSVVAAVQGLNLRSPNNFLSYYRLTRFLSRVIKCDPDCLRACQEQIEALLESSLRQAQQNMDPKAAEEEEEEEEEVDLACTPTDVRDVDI

T1 sequence (P24385 whole entry): as the sequence (P24385 whole entry, chain 2 of 2) above

B1
binding result [1]: binds

B2
Kd [2]: 0.87 ± 0.01 µM

B3
Kd [3]: 1.26 ± 0.02 µM

B4
Kd [2]: 0.81 ± 0.02 µM
